From the supplement of paper PMC7877785
± gives the uncertainty stated by the source.

Assay: self-splicing fitness, log relative to wild type (ln ratio); higher = more splicing; Tetrahymena group I intron in knt gene, E. coli kanamycin selection, DiMSum; sequences stand for … in CUCUCU…GGAGGGAAAAGUUAUCAGGCAUGCACCUGGUAGCUAGUCUUUAAACCAAUAGAUUGCAUCGGUUUAAAAGGCAAGACCGUCAAAUUGCGGGAAAGGGGUCAACAGCCGUUCAGUACCAAGUCUCAGGGGAAACUUUGAGAUGGCCUUGCAAAGGGUAUGGUAAUAAGCUGACGGACAUGGUCCUAACCACGCAGCCAAGUCCUAAGUCAACAGAUCUUCUGUUGAUAUGGAUGCAGUUCACAGACUAAAUGUCGGUCGGGGAAGAUGUAUUCUUCUCAUAAGAUAUAGUCGGACCUCUCCUUAAUGGGAGCUAGCGGAUGAAGUGAUGCAACACUGGAGCCGCUGGGAACUAAUUUGUAUGCGAAAGUAUAUUGAUUAGUUUUGGAGUACUCGUGGUCG
Method in brief: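 Fitness was computed with DiMSum as the error-weighted combination of replicate fold changes, kanamycin versus none, each normalised to wild type. The library randomised all eight intron nucleotides of the P1ex region, with the intron placed in the knt kanamycin-resistance gene on pET-22b(+) in E. coli BL21(DE3). Six replicate transformations were grown overnight at 37°C or 30°C on LB agar with or without 25 μg/mL kanamycin, plus 100 μg/mL carbenicillin, 50 μM IPTG and 0.2% rhamnose. Pooled colonies were amplicon-sequenced on an Illumina HiSeq 2500.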

Sequence | self-splicing fitness (ln) (30 °C) | self-splicing fitness (ln) (37 °C)
CCGAAGCAAUAUUACGAGAG | -3.28 ± 0.22 | -1.53 ± 0.19
UGCAAGCAAUAUUACGAUGA | -0.161 ± 0.093 | 0.0415 ± 0.097
CGGAAGCAAUAUUACGAUCA | -0.698 ± 0.11 | -0.039 ± 0.1
GCCGAGCAAUAUUACGUGGC | -3.26 ± 0.14 | -2.25 ± 0.21
GUCUAGCAAUAUUACGGGAU | -4.48 ± 0.42 | -3.39 ± 0.42
CAUCAGCAAUAUUACGCGCA | -1.21 ± 0.1 | -0.493 ± 0.12
CGAAAGCAAUAUUACGUGGU | -3.92 ± 0.14 | -2.11 ± 0.13
UCACAGCAAUAUUACGGUUC | -2.91 ± 0.11 | -2.7 ± 0.19
GGGAAGCAAUAUUACGCGUC | -3.64 ± 0.3 | -2.86 ± 0.47
CAUAAGCAAUAUUACGAUGC | -3.14 ± 0.19 | -2.34 ± 0.28
GAGAAGCAAUAUUACGGCUA | 0.0865 ± 0.09 | -0.0778 ± 0.1
GCGGAGCAAUAUUACGAUGU | -2.73 ± 0.26 | -1.02 ± 0.22
CAAUAGCAAUAUUACGUACG | -0.451 ± 0.063 | -0.069 ± 0.078
AGCCAGCAAUAUUACGCCGU | -2.54 ± 0.12 | -1.76 ± 0.13
GCUGAGCAAUAUUACGUAGG | -1.82 ± 0.084 | -1.24 ± 0.12
UUUAAGCAAUAUUACGCAUG | -1.07 ± 0.089 | -0.408 ± 0.099
CAGGAGCAAUAUUACGAACC |  | -1.07 ± 0.24
CCUCAGCAAUAUUACGAUGU | -3.41 ± 0.15 | -1.3 ± 0.12
GAUCAGCAAUAUUACGAGCG | -1.37 ± 0.08 | -0.0351 ± 0.097
CCCUAGCAAUAUUACGACCU | -3.5 ± 0.21 | -2.68 ± 0.26
ACCAAGCAAUAUUACGCCAA | -1.97 ± 0.18 | -2.71 ± 0.23
UGCCAGCAAUAUUACGCACC | -2.19 ± 0.28 | -1.32 ± 0.35
ACAGAGCAAUAUUACGCCUU | -3.76 ± 0.42 | -1.9 ± 0.3
UUGAAGCAAUAUUACGCACG | -0.255 ± 0.15 | -0.521 ± 0.15
CGCAAGCAAUAUUACGUCUC | -3.36 ± 0.18 | -1.49 ± 0.15
CCAUAGCAAUAUUACGCCUU | -3.13 ± 0.22 | -3.02 ± 0.22

Sequence | self-splicing fitness (ln) (30 °C) | self-splicing fitness (ln) (37 °C)
UCUCAGCAAUAUUACGCCAG | -1.94 ± 0.25 | -1.2 ± 0.34
ACUAAGCAAUAUUACGAUGU | -1.62 ± 0.1 | -1.38 ± 0.13
AAUCAGCAAUAUUACGAAGA | -0.26 ± 0.087 | 0.0829 ± 0.099
CCUGAGCAAUAUUACGCCGU | -3.18 ± 0.45 | -1.61 ± 0.39
GCAGAGCAAUAUUACGUGGC |  | -2.09 ± 0.32
CUACAGCAAUAUUACGCAGG | -2.62 ± 0.13 | -3.06 ± 0.24
AGCUAGCAAUAUUACGACCU | 0.703 ± 0.17 | -0.166 ± 0.18
GAGGAGCAAUAUUACGAAUG |  | -1.7 ± 0.43
UAAUAGCAAUAUUACGGGCU | -3.28 ± 0.27 | -2.16 ± 0.19
UCAUAGCAAUAUUACGUGGU | -3.42 ± 0.16 | -2.8 ± 0.16
AGGAAGCAAUAUUACGUGCG | -1.01 ± 0.1 | -1.04 ± 0.13
GUGUAGCAAUAUUACGAAGC | -2.07 ± 0.17 | -0.684 ± 0.23
AAACAGCAAUAUUACGAAGA | -2.29 ± 0.12 | -1.55 ± 0.11
ACAAAGCAAUAUUACGUGCG | -1.07 ± 0.066 | -0.382 ± 0.076
UACUAGCAAUAUUACGCGAA | -1.97 ± 0.2 | -1.18 ± 0.14
UGAUAGCAAUAUUACGGGGC | -3.5 ± 0.29 | 
GAUGAGCAAUAUUACGUCAG | -3.78 ± 0.32 | -2.31 ± 0.26
GUUCAGCAAUAUUACGCUCA | -0.457 ± 0.11 | -0.298 ± 0.13
UAGAAGCAAUAUUACGAUAC | -2.87 ± 0.32 | -2.46 ± 0.27
UAUUAGCAAUAUUACGUUUC | -3.79 ± 0.28 | -2.98 ± 0.34
GAUGAGCAAUAUUACGUUCU | -2.89 ± 0.16 | -1.32 ± 0.12
AAUUAGCAAUAUUACGGCGA | -0.312 ± 0.1 | 0.113 ± 0.1
GGAUAGCAAUAUUACGGGAU | -3.03 ± 0.27 | -2.39 ± 0.21
AUCGAGCAAUAUUACGCGUC | -2.85 ± 0.21 | -2.7 ± 0.43
GGAUAGCAAUAUUACGAUAA | -1.51 ± 0.19 | -1.46 ± 0.2
ACUUAGCAAUAUUACGGAAA | -2.19 ± 0.27 | -2.09 ± 0.26

Sequence | self-splicing fitness (ln) (30 °C) | self-splicing fitness (ln) (37 °C)
UAGUAGCAAUAUUACGGAAG |  | -1.83 ± 0.23
GCCCAGCAAUAUUACGUAUC | -0.98 ± 0.08 | -1.18 ± 0.081
GACGAGCAAUAUUACGGGAA | -3.41 ± 0.31 | -2.34 ± 0.19
GUAAAGCAAUAUUACGAGAU | -2.12 ± 0.12 | -1.99 ± 0.15
CAUAAGCAAUAUUACGUAGC | -3.15 ± 0.17 | -2.96 ± 0.2
UGGCAGCAAUAUUACGACAA | -0.602 ± 0.14 | -0.308 ± 0.16
CUCGAGCAAUAUUACGUACU | -2.68 ± 0.2 | -3.11 ± 0.33
AUUUAGCAAUAUUACGCGCC | -0.641 ± 0.26 | -0.828 ± 0.34
UAUGAGCAAUAUUACGCGGC | -4.02 ± 0.29 | -1.8 ± 0.25
ACAGAGCAAUAUUACGUGCC | -3.54 ± 0.46 | 
AGGCAGCAAUAUUACGGGCU | -0.928 ± 0.071 | -1.51 ± 0.11
UCUAAGCAAUAUUACGGGUG | -1.54 ± 0.076 | -0.964 ± 0.099
ACAGAGCAAUAUUACGUCGU | -3.11 ± 0.16 | -0.947 ± 0.15
ACAUAGCAAUAUUACGGUAG | -4.45 ± 0.42 | -2.89 ± 0.32
UACUAGCAAUAUUACGUGAU | -3.07 ± 0.11 | -1.17 ± 0.12
AUUAAGCAAUAUUACGAGCG | -0.827 ± 0.1 | -0.58 ± 0.13
GGCCAGCAAUAUUACGUCUC | -1.1 ± 0.089 | -0.447 ± 0.12
AACUAGCAAUAUUACGUUUA | -1.98 ± 0.11 | -1.1 ± 0.11
GCUCAGCAAUAUUACGGGUG | -0.435 ± 0.055 | -0.211 ± 0.074
CCUCAGCAAUAUUACGCCCG | -0.527 ± 0.15 | -0.422 ± 0.18
UGUUAGCAAUAUUACGUUAU | -2.78 ± 0.16 | -2.67 ± 0.19
UCGCAGCAAUAUUACGCAGU | -3.58 ± 0.2 | -2.35 ± 0.2
GAUUAGCAAUAUUACGACGU | -0.442 ± 0.063 | 0.93 ± 0.089
AUAGAGCAAUAUUACGCUCA | -0.0598 ± 0.076 | 0.193 ± 0.12
CGACAGCAAUAUUACGAGCC | -3.59 ± 0.22 | -1.68 ± 0.26
